Test results: paper PMC12787490, “PSA-Responsive Aptamer-Based Switchable Aggregates of Ultrasmall Gold Nanoparticles”

Tests used:
[1] = target: T1, prostate-specific antigen (PSA) (human, UniProt P07288 25-261); assay: ELONA (direct); 3.9-500 nM aptamer, 5 mM MgCl2; ELONA: PSA 250 ng/well adsorbed; aptamers 3.9-500 nM in PBS + 5 mM MgCl2, 1 h at 37 C; block 3% BSA + 100 nM ssDNA mix; wash PBS 0.05% Tween-20; details: protein: commercial; label: biotin
[2] = target: T1, prostate-specific antigen (PSA); assay: ELONA (direct); significant signal from 250 nM, 5 mM MgCl2; ELONA: PSA 250 ng/well adsorbed; aptamers 3.9-500 nM in PBS + 5 mM MgCl2, 1 h at 37 C; block 3% BSA + 100 nM ssDNA mix; wash PBS 0.05% Tween-20; details: protein: commercial; label: biotin; stem-loops nt 4-14 and 17-30 (predicted)
[3] = target: T1, prostate-specific antigen (PSA); assay: ELONA (direct); significant signal from 250 nM; affinity comparable to AS2; 5 mM MgCl2; ELONA: PSA 250 ng/well adsorbed; aptamers 3.9-500 nM in PBS + 5 mM MgCl2, 1 h at 37 C; block 3% BSA + 100 nM ssDNA mix; wash PBS 0.05% Tween-20; details: protein: commercial; label: biotin; 15 bp duplex at 3' end of AS2-tail, 5' overhang 32 nt of AS2-tail
[4] = target: T1, prostate-specific antigen (PSA); assay: DLS and plasmon shift (aggregate disassembly); response down to 10 fM PSA in buffer, 1 pM in filtered plasma; ELONA: PSA 250 ng/well adsorbed; aptamers 3.9-500 nM in PBS + 5 mM MgCl2, 1 h at 37 C; block 3% BSA + 100 nM ssDNA mix; wash PBS 0.05% Tween-20; details: protein: commercial; label: US-AuNP; 15 bp duplex at 3' end of AS2-tail, 5' overhang 32 nt; about 8 ssDNA per particle

T1 sequence (P07288 25-261): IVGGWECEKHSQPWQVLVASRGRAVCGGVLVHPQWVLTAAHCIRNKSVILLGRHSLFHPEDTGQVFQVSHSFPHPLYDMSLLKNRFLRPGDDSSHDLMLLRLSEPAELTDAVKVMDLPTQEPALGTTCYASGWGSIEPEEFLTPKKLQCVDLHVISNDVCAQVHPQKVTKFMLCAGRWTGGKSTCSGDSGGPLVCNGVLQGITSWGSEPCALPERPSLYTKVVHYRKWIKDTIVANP

B1: aPSA-biotin (ssDNA)
DNA: ATTAAAGCTCGCCATCAAATAGC
modifications: biotin
- binding result [1]: no binding

B2: AS2-biotin (structured_DNA)
DNA: GGGCGGGGCGGACGAGACAGTAAGGGCTGTGGGTGTGGTG
modifications: 3' biotin
- binding result [2]: binds

B3: AS2-tail-biotin:RevAS2 (mixed)
DNA: GGGCGGGGCGGACGAGACAGTAAGGGCTGTGGGTGTGGTGTTTTTTT
?: AAAAAAACACCACAC
modifications: 3' biotin on AS2-tail
- binding result [3]: binds

B4: AS2-tail-thio:RevAS2-thio (AS2-US-AuNP-Aggregate) (mixed)
DNA: B3 DNA
?: AAAAAAACACCACAC
modifications: 3' thiol on AS2-tail, 5' thiol on RevAS2; conjugated to gold nanoparticles
- binding result [4]: binds
